In the supplement of paper PMC12042874:
± gives the uncertainty stated by the source.

Assay: amyloid nucleation score (Sup35N fusion, yeast selection) (log enrichment); library NNK2; higher = more nucleation; inactive = no reads after selection
How it was run: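 Peptides of 20 random codons fused to Sup35N were expressed in psi-negative yeast, induced 24 hours with 100 μM copper sulfate, then grown 7 days at 30°C on medium lacking adenine and uracil. Input and output plasmid inserts were Illumina-sequenced. Nucleation score is the DiMSum log enrichment of output over input reads, centred on the mode score of non-aggregating sequences, excluding sequences with under 100 input reads. Random libraries had three technical output replicates.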
For NTSMNCRKVMYDMNIYNLSK, the amyloid nucleation score was 3.49 ± 0.11.
SVRFPITVMFRFSRWFTETY gave an amyloid nucleation score of -0.264 ± 0.37.
In the case of RTCHGHYFLMM, the amyloid nucleation score is reported as 0.683 ± 0.74.
VRMSLTLSFQVLAYWEGFIK gave an amyloid nucleation score of -0.64 ± 0.49.
Work on VNIERGFLRLKRLD yielded an amyloid nucleation score of -0.316 ± 1.1.
Work on NDGAIGIVAPGEHLLVRDVK yielded an amyloid nucleation score of -0.573 ± 0.41.
QVTSNRSTGRRYILNQMC showed an amyloid nucleation score of -0.337 ± 1.1.
With VLSMVVDKCLCTMCIQAIVL the amyloid nucleation score was 9.711 ± 0.058.
RHTFLVSAGYKERMVGMTSG gave an amyloid nucleation score of -1.12 ± 0.63.
FRNFELSRTFVVYNPVLQCY gave an amyloid nucleation score of -0.473 ± 0.39.
For SSSALEANINQSMEDIKEAF, the amyloid nucleation score was -0.427 ± 1.1.
Work on NSRQYSVMIVQLIPCCQLIP yielded an amyloid nucleation score of 0.033 ± 0.6.
In the case of NSYSGAVLT, the amyloid nucleation score is reported as -0.464 ± 1.1.
PDPVPM gave an amyloid nucleation score of 0.632 ± 0.31.
Substance CLAPFHYDQYCKWESDSVSR has an amyloid nucleation score of -0.438 ± 0.44.
For EFLRNGLFKEVAS, the amyloid nucleation score was 0.202 ± 0.64.
LRADLYCFACLNAPSC gave an amyloid nucleation score of 5.89 ± 0.091.
IDSADVSIVRCKTQVRRIMR showed an amyloid nucleation score of 5.62 ± 0.063.
In the case of GYGRLIWLGACRL, the amyloid nucleation score is reported as 1.18 ± 0.48.
PKVVPMISRIAVPL gave an amyloid nucleation score of -0.788 ± 0.76.
With FTRRSGSRLWTRFALGDWVA the amyloid nucleation score was “inactive”.
In the case of PGYSVVIWELSEEGTFYKRK, the amyloid nucleation score is reported as “inactive”.
In the case of RSYLIKSLVSSLSARWIMMS, the amyloid nucleation score is reported as -0.03 ± 0.49.
For FCWFRLLEYFSR, the amyloid nucleation score was -0.201 ± 0.45.
CSSSVNCMFITC gave an amyloid nucleation score of 7.87 ± 0.047.
With EKICRWHTDRGAFN the amyloid nucleation score was “inactive”.
YYVSSVLWIRYYQGNRTRSW showed an amyloid nucleation score of -0.901 ± 0.44.
Work on SLYVVQYCRSRYLVNCTDRV yielded an amyloid nucleation score of 0.129 ± 0.33.
NWPMGGHVYKHRVSHSG showed an amyloid nucleation score of 0.095 ± 0.53.
Work on IAITDFVLVSVLHSKWCIF yielded an amyloid nucleation score of -0.246 ± 0.5.
LAISHMLSKCVKKIDTL gave an amyloid nucleation score of 1.56 ± 0.2.
LVNTYYAHVWWLLVGIMMLS gave an amyloid nucleation score of -0.645 ± 1.1.
RRTIGASTEKYRLNNFLHVC showed an amyloid nucleation score of -0.661 ± 1.1.
Work on ESDLVLGRVR yielded an amyloid nucleation score of 0.69 ± 0.49.
TRLVWIFLSPM gave an amyloid nucleation score of -0.169 ± 0.25.
With WSEYRFRHIPKLKKCYQVD the amyloid nucleation score was 0.175 ± 0.32.
In the case of QPSFPTHCQDRFVEECINEV, the amyloid nucleation score is reported as “inactive”.
Work on STCIMDLSWCKVRRFGSTQV yielded an amyloid nucleation score of -0.149 ± 0.79.
Work on YTVRKNNLVVQESMFLSKCW yielded an amyloid nucleation score of 0.855 ± 0.12.
For LTYACSWYQKSQFGSCLNEW, the amyloid nucleation score was 0.449 ± 0.26.
SCLLSL gave an amyloid nucleation score of 0.506 ± 0.45.
Work on NTGFTLMGCWPMYYCWSFSW yielded an amyloid nucleation score of -0.073 ± 1.
PIHNNKHGCFSSERSSFHKM gave an amyloid nucleation score of -1.6 ± 0.75.
With NCRLKLPSP the amyloid nucleation score was 3.69 ± 0.05.
For FHSPLCSCQSSLKVEWGHSE, the amyloid nucleation score was “inactive”.
For PNSRGLSQVNLSFVENRRWS, the amyloid nucleation score was 3.84 ± 0.044.
Work on LMTPVNSILLRLWCSIFLCF yielded an amyloid nucleation score of 3.26 ± 0.12.
SKRDGVSSMIM gave an amyloid nucleation score of 4.25 ± 0.069.
With HGHLHYLMNR the amyloid nucleation score was -0.031 ± 1.
For SMKHRHSRMVTFGVLV, the amyloid nucleation score was 0.163 ± 0.28.
SPAQCIGVCNRLKLYCST gave an amyloid nucleation score of 0.262 ± 0.45.
Substance RIGTFWRGQDKLDVFKYGVV has an amyloid nucleation score of -0.236 ± 0.37.
For KMLPSGARDLMPMDLLDFMM, the amyloid nucleation score was -0.234 ± 0.25.
Work on KYMCSLMEATFLYNGSALRC yielded an amyloid nucleation score of -1.6 ± 1.1.
TCRQSEATLLVLEYVRESCS showed an amyloid nucleation score of 0.809 ± 0.3.
Work on VSNPSGVREPATTGGQSLAI yielded an amyloid nucleation score of 0.966 ± 0.47.
In the case of ILRCLNLYMRSIMRVELSIQ, the amyloid nucleation score is reported as 0.461 ± 0.8.
Work on QPCLHAMV yielded an amyloid nucleation score of 0.319 ± 0.56.
For SRCGLLMVSPNAVPSGLAHR, the amyloid nucleation score was 1.18 ± 0.31.
With LFARLLLHYVTS the amyloid nucleation score was 9.204 ± 0.08.
STKITAESGR gave an amyloid nucleation score of 0.502 ± 0.41.
KVRGPSNNVSSQKAHDRFDS gave an amyloid nucleation score of 0.277 ± 0.28.
In the case of KGSGRSQLSSIVCVFFGQTV, the amyloid nucleation score is reported as -0.292 ± 0.49.
VQNLMYIVISPFDRYGRCGR gave an amyloid nucleation score of 9.735 ± 0.048.
FYVRSSTYFFHVYNYL gave an amyloid nucleation score of -0.387 ± 0.28.
Substance LRYKGMRFLNWMRNLKWDGI has an amyloid nucleation score of 0.022 ± 0.65.
SVDIKIFLQPAYFCNATAAV showed an amyloid nucleation score of 6.435 ± 0.039.
For EWSRGLCTVQLA, the amyloid nucleation score was 0.058 ± 0.65.
Work on HQRGMNLISFVWHSENVRIW yielded an amyloid nucleation score of 1.07 ± 0.61.
With MYCLHCTTSCWSRLRLVNNF the amyloid nucleation score was 2.98 ± 0.16.
LHWFMVEDH gave an amyloid nucleation score of 0.19 ± 0.42.
Substance HIGILTT has an amyloid nucleation score of 1.64 ± 0.32.
With LLSSLVFVVNFFAKGLRWLT the amyloid nucleation score was -1.9 ± 0.62.
For SPYVRWDKTNLIGWEWYRVE, the amyloid nucleation score was -0.819 ± 0.43.
In the case of RLDGSG, the amyloid nucleation score is reported as 0.587 ± 0.2.
In the case of KYCDWYL, the amyloid nucleation score is reported as -0.274 ± 0.22.
Work on SCAHKELCQSVLRDVYWCTL yielded an amyloid nucleation score of -0.224 ± 0.79.
SNEGWIKCWILYFVFGAWMI gave an amyloid nucleation score of -0.896 ± 0.79.
With LFSVLL the amyloid nucleation score was -0.916 ± 1.
For SGFII, the amyloid nucleation score was -1.18 ± 1.1.
Substance LHIDGNENRFLHRDGKRQEA has an amyloid nucleation score of 0.245 ± 0.39.
In the case of RNLGIHKSLFNSAYARAWAV, the amyloid nucleation score is reported as -0.771 ± 0.49.
For LSIQLTEHA, the amyloid nucleation score was 2.13 ± 0.079.
AYWVQGCLLQMRMT showed an amyloid nucleation score of 0.891 ± 0.22.
DYRMVYSCCMLGREGWRNTW gave an amyloid nucleation score of 5.606 ± 0.035.
In the case of DWTTAFSTF, the amyloid nucleation score is reported as -0.012 ± 0.41.
